T1: human BCMA on myeloma cells (H929, U266, patient bone marrow myeloma plasma cells) (human, UniProt Q02223 1-184)
T1 sequence (looked up): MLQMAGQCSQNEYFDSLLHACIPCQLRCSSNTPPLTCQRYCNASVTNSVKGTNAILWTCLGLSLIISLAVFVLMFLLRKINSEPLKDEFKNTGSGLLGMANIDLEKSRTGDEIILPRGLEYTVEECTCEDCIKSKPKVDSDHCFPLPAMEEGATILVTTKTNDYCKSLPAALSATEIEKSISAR

B1: pSCHLI333-TCB CLC (bispecific antibody)
heavy 1: not shown
heavy 2: QVQLVQSGAEVKKPGASVKVSCKASGYMFSSFGMSWVRQAPGQGLEWMGWIYPVGQGTWYAQKFQGRVTMTRDTSTSTVYMELSSLRSEDTAVYYCARVSYPPSHFDYWGQGTLVTVSSASTKGPSVFPLAPSSKSTSGGTAALGCLVKDYFPEPVTVSWNSGALTSGVHTFPAVLQSSGLYSLSSVVTVPSSSLGTQTYICNVNHKPSNTKVDKKVEPKSCDKTHTCPPCPAPEAAGGPSVFLFPPKPKDTLMISRTPEVTCVVVDVSHEDPEVKFNWYVDGVEVHNAKTKPREEQYNSTYRVVSVLTVLHQDWLNGKEYKCKVSNKALGAPIEKTISKAKGQPREPQVCTLPPSRDELTKNQVSLSCAVKGFYPSDIAVEWESNGQPENNYKTTPPVLDSDGSFFLVSKLTVDKSRWQQGNVFSCSVMHEALHNHYTQKSLSLSPGK
light: QAVVTQEPSLTVSPGGTVTLTCGSSTGAVTTSNYANWVQEKPGQAFRGLIGGTNKRAPGTPARFSGSLLGGKAALTLSGAQPEDEAEYYCALWYSNLWVFGGGTKLTVLGQPKAAPSVTLFPPSSEELQANKATLVCLISDFYPGAVTVAWKADSSPVKAGVETTTPSKQSNNKYAASSYLSLTPEQWKSHRSYSCQVTHEGSTVEKTVAPTECS
B2: pSCHLI372-TCB CLC (bispecific antibody)
heavy 1: not shown
heavy 2: EVQLVESGGGLVKPGGSLRLSCAASGFTFSNSGMIWVRQAPGKGLEWVGHIRSKTDGGTTDYAAPVKGRFTISRDDSKNTLYLQMNSLKTEDTAVYYCTTGGSGSFDYWGQGTLVTVSSASTKGPSVFPLAPSSKSTSGGTAALGCLVKDYFPEPVTVSWNSGALTSGVHTFPAVLQSSGLYSLSSVVTVPSSSLGTQTYICNVNHKPSNTKVDKKVEPKSCDKTHTCPPCPAPEAAGGPSVFLFPPKPKDTLMISRTPEVTCVVVDVSHEDPEVKFNWYVDGVEVHNAKTKPREEQYNSTYRVVSVLTVLHQDWLNGKEYKCKVSNKALGAPIEKTISKAKGQPREPQVCTLPPSRDELTKNQVSLSCAVKGFYPSDIAVEWESNGQPENNYKTTPPVLDSDGSFFLVSKLTVDKSRWQQGNVFSCSVMHEALHNHYTQKSLSLSPGK
light: B1 light

Columns and labels:
[1] = biological target: T1, human BCMA on myeloma cells (H929, …); test: cell-based or functional assay
[2] = biological target: T1, human BCMA on myeloma cells (H929, …); test: cell-based or functional assay; remark: listed apart in the source

Binder | EC50 (pM) for redirected T-cell killing of H929 cells (LDH release) [1] | EC50 (µg/ml) for redirected T-cell killing of H929 cells (LDH release) [1] | EC50 (pM) for redirected T-cell killing of U266 cells (LDH release) [2] | EC50 (µg/ml) for redirected T-cell killing of U266 cells (LDH release) [2] | EC50 (pM) for redirected T-cell killing of H929 cells (LDH release), Experiment 1 [1] | EC50 (pM) for redirected T-cell killing of H929 cells (LDH release), Experiment 2 [1] | EC50 (µg/ml) for redirected T-cell killing of H929 cells (LDH release), Experiment 1 [1] | EC50 (µg/ml) for redirected T-cell killing of H929 cells (LDH release), Experiment 2 [1]
B1 | 980 pM | 0.19 µg/mL | – | – | – | – | – | –
B2 | – | – | 5700 pM | 1.1 µg/mL | 450 pM | 900 pM | 0.08 µg/mL | 0.17 µg/mL
